Test results taken from US20240016931A1 (JIANGSU HENGRUI PHARMACEUTICALS, published 2024).
Changes are numbered by the printed parent chain. Names may count otherwise. Each block holds one binder with its values, some of them ahead of it.

Target: T1, His-tagged human TSLP antigen (huTSLP-his) (human)
T1 construct: Secreted from HEK293E and purified on nickel; whole entry named; also called Human TSLP-his
Test: ELISA, coated huTSLP-his;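 further: binding of antibodies to plate-bound TSLP read as absorbance at 450 nm after TMB colour development, EC50 derived from binding curves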
Method: The plate was incubated at 4° C. overnight. After the liquid was discarded, 5% skim milk (skim milk powder from Brightdairy) blocking solution diluted with PBS was added at 200 μL/well, and the plate was incubated in an incubator at 37° C. for 2 h for blocking. After the blocking, the blocking solution was discarded, and the plate was washed 3 times with a PBST buffer (PBS containing 0.1% (v/v) tween-20, pH 7.4). […] After the incubation, the plate was washed 3 times with PBST. […] After the plate was washed 6 times with PBST, a TMB chromogenic substrate (KPL, 52-00-03) was added at 50 μL/well, and the plate was incubated at room temperature for 10-15 min. Then, 1 M H₂SO₄ was added at 50 μL/well to stop the reaction. The absorbance at 450 nm was read with a NOVOStar microplate reader, and the EC₅₀ values for the binding of the TSLP antibodies to TSLP were calculated.

EC50: 0.157 nM
B1: hu179-09 (antibody, human IgG1, kappa)
heavy: EVQLVQSGAEVKKPGSSVKVSCKASGYTFSNYLIEWVRQAPGQGLEWIGVIDPGNGDTNYNENFKGRATLTADKSTSTAYIELSSLRSEDTAVYYCAREDNTGTAFDYWGQGTTVTVSSASTKGPSVFPLAPSSKSTSGGTAALGCLVKDYFPEPVTVSWNSGALTSGVHTFPAVLQSSGLYSLSSVVTVPSSSLGTQTYICNVNHKPSNTKVDKKVEPKSCDKTHTCPPCPAPELLGGPSVFLFPPKPKDTLYITREPEVTCVVVDVSHEDPEVKFNWYVDGVEVHNAKTKPREEQYNSTYRVVSVLTVLHQDWLNGKEYKCKVSNKALPAPIEKTISKAKGQPREPQVYTLPPSRDELTKNQVSLTCLVKGFYPSDIAVEWESNGQPENNYKTTPPVLDSDGSFFLYSKLTVDKSRWQQGNVFSCSVMHEALHNHYTQKSLSLSPGK
light: SIVMTQTPLSLSVTPGQPASISCKASQSVSSDVTWYLQKPGQSPQLLIYYVSNHYTGVPDRFSGSGSGTDFTLKISRVEAEDVGVYYCQQHHRFPLTFGQGTKLEIKRTVAAPSVFIFPPSDEQLKSGTASVVCLLNNFYPREAKVQWKVDNALQSGNSQESVTEQDSKDSTYSLSSTLTLSKADYEKHKVYACEVTHQGLSSPVTKSFNRGEC
notes: IgG1-YTE, kappa

EC50: 0.19 nM
B2: hu179-10 (antibody, human IgG1, kappa, V domains shown)
VH: EVQLVQSGAEVKKPGSSVKVSCKASGYTFSNYLIEWVRQAPGQGLEWIGVIDPGNGDTNYNENFKGRATLTADKSTSTAYIELSSLRSEDTAVYYCAREDNTGTAFDYWGQGTTVTVSS
VL: SIVMTQTPLSLSVTPGQPASISCKASQSVSSDVTWYLQKPGQSPQLLIYYVSNHYTGVPDRFSGSGSGTDFTFKISRVEAEDVGVYYCQQHHRFPLTFGQGTKLEIKR
notes: IgG1-YTE, kappa

EC50: 0.162 nM
B3: hu179-08 (antibody, human IgG1, kappa)
heavy: B1 heavy
light: B1 light with S1D
notes: IgG1-YTE, kappa

EC50: 0.137 nM
B4: hu179-11 (antibody, human IgG1, kappa, V domains shown)
VH: B2 VH
VL: B2 VL with S67Y, F73L
notes: IgG1-YTE, kappa

EC50: 0.162 nM
B5: hu179-19 (antibody, human IgG1, kappa, V domains shown)
VH: B2 VH with T28A, I81M
VL: B2 VL with S67Y, F73L
notes: IgG1-YTE, kappa

EC50: 0.218 nM
B6: hu179-17 (antibody, human IgG1, kappa)
heavy: B1 heavy with T28A, I81M
light: B1 light
notes: IgG1-YTE, kappa

EC50: 0.229 nM
B7: hu179-16 (antibody, human IgG1, kappa)
heavy: B1 heavy with T28A, I81M
light: B1 light with S1D
notes: IgG1-YTE, kappa

EC50: 0.246 nM
B8: hu179-18 (antibody, human IgG1, kappa, V domains shown)
VH: B2 VH with T28A, I81M
VL: B2 VL
notes: IgG1-YTE, kappa

EC50: 0.594 nM
B9: hu3-06 (antibody, human IgG1, kappa, V domains shown)
VH: EVQLVQSGAEVKKPGASVKVSCKASGYTFTDDYMNWVRQAPGQRLEWMGIISPYNGGTSYNQKFKGRVTLTVDKSASTAYMELSSLRSEDTAVYYCAREDYDYDGYAMDHWGQGTTVTVSS
VL: EIVLTQSPATLSLSPGERATLSCRASSSVSYMHWYQQKPGQAPRPWIYATSNLASGVPARFSGSGSGTDYTLTISRLEPEDFAVYYCQQWSSNRTFGGGTKVEIKR
notes: IgG1-YTE, kappa

EC50: 0.628 nM
B10: hu3-02 (antibody, human IgG1, kappa, V domains shown)
VH: B9 VH with L70I, V72R, K74T
VL: B9 VL
notes: IgG1-YTE, kappa

EC50: 0.388 nM
B11: hu3-10 (antibody, human IgG1, kappa, V domains shown)
VH: B9 VH with R38K, M48I, V68A
VL: B9 VL with D69S
notes: IgG1-YTE, kappa

EC50: 0.469 nM
B12: hu3-08 (antibody, human IgG1, kappa, V domains shown)
VH: B9 VH with R38K, M48I, V68A
VL: B9 VL with W46L, V57I
notes: IgG1-YTE, kappa

EC50: 0.385 nM
B13: hu3-07 (antibody, human IgG1, kappa, V domains shown)
VH: B9 VH
VL: B9 VL with D69S
notes: IgG1-YTE, kappa

EC50: 0.849 nM
B14: hu3-01 (antibody, human IgG1, kappa, V domains shown)
VH: B9 VH with L70I, V72R, K74T
VL: B9 VL with W46L, V57I
notes: IgG1-YTE, kappa

EC50: 0.517 nM
B15: hu3-05 (antibody, human IgG1, kappa, V domains shown)
VH: B9 VH
VL: B9 VL with W46L, V57I
notes: IgG1-YTE, kappa

EC50: 0.494 nM
B16: hu3-09 (antibody, human IgG1, kappa, V domains shown)
VH: B9 VH with R38K, M48I, V68A
VL: B9 VL
notes: IgG1-YTE, kappa

EC50: 0.435 nM
B17: hu3-04 (antibody, human IgG1, kappa, V domains shown)
VH: B9 VH
VL: B9 VL with P45L, W46L, V57I, Y70F
notes: IgG1-YTE, kappa

EC50: 0.152 nM
B18: hu3-12 (antibody, human IgG1, kappa, V domains shown)
VH: B9 VH with H110Y
VL: B9 VL with D69S, W90S, S91D, S92N, N93V, T95G
notes: IgG1-YTE, kappa; also called hu3VH2-H110Y + hu3VL5

EC50: 0.554 nM
B19: hu3-03 (antibody, human IgG1, kappa, V domains shown)
VH: B9 VH with L70I, V72R, K74T
VL: B9 VL with D69S
notes: IgG1-YTE, kappa
